Source: the supplement of paper PMC7877785
± gives the uncertainty stated by the source.

Experiment: self-splicing fitness, log relative to wild type (ln ratio); higher = more splicing; Tetrahymena group I intron in knt gene, E. coli kanamycin selection, DiMSum; sequences stand for … in CUCUCU…GGAGGGAAAAGUUAUCAGGCAUGCACCUGGUAGCUAGUCUUUAAACCAAUAGAUUGCAUCGGUUUAAAAGGCAAGACCGUCAAAUUGCGGGAAAGGGGUCAACAGCCGUUCAGUACCAAGUCUCAGGGGAAACUUUGAGAUGGCCUUGCAAAGGGUAUGGUAAUAAGCUGACGGACAUGGUCCUAACCACGCAGCCAAGUCCUAAGUCAACAGAUCUUCUGUUGAUAUGGAUGCAGUUCACAGACUAAAUGUCGGUCGGGGAAGAUGUAUUCUUCUCAUAAGAUAUAGUCGGACCUCUCCUUAAUGGGAGCUAGCGGAUGAAGUGAUGCAACACUGGAGCCGCUGGGAACUAAUUUGUAUGCGAAAGUAUAUUGAUUAGUUUUGGAGUACUCGUGGUCG
Summary of the method: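 Fitness was computed with DiMSum as the error-weighted combination of replicate fold changes, kanamycin versus none, each normalised to wild type. The library randomised all eight intron nucleotides of the P1ex region, with the intron placed in the knt kanamycin-resistance gene on pET-22b(+) in E. coli BL21(DE3). Six replicate transformations were grown overnight at 37°C or 30°C on LB agar with or without 25 μg/mL kanamycin, plus 100 μg/mL carbenicillin, 50 μM IPTG and 0.2% rhamnose. Pooled colonies were amplicon-sequenced on an Illumina HiSeq 2500.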

| Sequence | self-splicing fitness (ln) (30 °C) | self-splicing fitness (ln) (37 °C) |
| --- | --- | --- |
| CACAAGCAAUAUUACGGCUG | -1.54 ± 0.072 | -0.213 ± 0.087 |
| UACAAGCAAUAUUACGCCGC |  | -2.06 ± 0.43 |
| GAAGAGCAAUAUUACGAUAA | -3.7 ± 0.29 | -2.11 ± 0.22 |
| GGCGAGCAAUAUUACGAAUU | -1.66 ± 0.14 | -0.459 ± 0.17 |
| GCGUAGCAAUAUUACGAUAG | -2.2 ± 0.26 | -1.83 ± 0.34 |
| UCCCAGCAAUAUUACGCCUA | -1.41 ± 0.078 | -1.34 ± 0.08 |
| GGCGAGCAAUAUUACGCAGU | -1.29 ± 0.43 | -0.76 ± 0.39 |
| AUCGAGCAAUAUUACGUACA | -3.78 ± 0.33 | -1.72 ± 0.16 |
| GACAAGCAAUAUUACGCAGU | -3.47 ± 0.35 | -1.85 ± 0.22 |
| GCGUAGCAAUAUUACGGAUG | -1.41 ± 0.16 | -1.98 ± 0.18 |
| GACCAGCAAUAUUACGUUGC | -1.78 ± 0.067 | -1.56 ± 0.1 |
| GCUCAGCAAUAUUACGCGCU | -1.42 ± 0.11 | -0.545 ± 0.14 |
| CGUCAGCAAUAUUACGGUUG | -0.45 ± 0.065 | -0.256 ± 0.081 |
| CACGAGCAAUAUUACGAACG | -0.211 ± 0.12 | 0.033 ± 0.14 |
| GUGGAGCAAUAUUACGAGGC |  | -1.03 ± 0.5 |
| ACCAAGCAAUAUUACGUUUA | -2.41 ± 0.12 | -1.82 ± 0.11 |
| CCCGAGCAAUAUUACGGAUU | -4.16 ± 0.18 | -2.55 ± 0.17 |
| AGGCAGCAAUAUUACGGCCU | -3.36 ± 0.18 | -2.37 ± 0.24 |
| CAGUAGCAAUAUUACGUCGC |  | -2.7 ± 0.4 |
| ACUUAGCAAUAUUACGAGAA | -2.06 ± 0.29 | -2.07 ± 0.23 |
| UGACAGCAAUAUUACGCUAU | -3.7 ± 0.2 | -1.09 ± 0.1 |
| UCUUAGCAAUAUUACGACAU | -3.836 ± 0.034 | -2.41 ± 0.04 |
| UACUAGCAAUAUUACGCUUA | -1.38 ± 0.11 | -0.588 ± 0.11 |
| AUAGAGCAAUAUUACGUUAC | -1.38 ± 0.19 | -1.37 ± 0.3 |
| UGUAAGCAAUAUUACGGCAC | -1.49 ± 0.24 | -1.48 ± 0.42 |
| GGCCAGCAAUAUUACGCUUU | -0.464 ± 0.064 | 0.4 ± 0.087 |

| Sequence | self-splicing fitness (ln) (30 °C) | self-splicing fitness (ln) (37 °C) |
| --- | --- | --- |
| UCACAGCAAUAUUACGUUAU | -3.61 ± 0.12 | -2.75 ± 0.12 |
| UACAAGCAAUAUUACGCCUG | -0.585 ± 0.081 | 0.17 ± 0.11 |
| CACAAGCAAUAUUACGAGAA | -2.29 ± 0.31 | -2.41 ± 0.34 |
| ACUAAGCAAUAUUACGCUCC | -1.24 ± 0.096 | -0.322 ± 0.13 |
| CGAUAGCAAUAUUACGGUGC | -3.57 ± 0.3 | -2.23 ± 0.24 |
| AGACAGCAAUAUUACGGGGC | -3.97 ± 0.23 | -1.69 ± 0.17 |
| GAGUAGCAAUAUUACGUGAC | -1.42 ± 0.22 | -1.89 ± 0.39 |
| CAUUAGCAAUAUUACGACAA | -2.37 ± 0.24 | -2.09 ± 0.32 |
| GGCGAGCAAUAUUACGGCCA | -1.39 ± 0.21 | -1.35 ± 0.27 |
| AGCUAGCAAUAUUACGCCGG | -2.94 ± 0.2 | -1.85 ± 0.34 |
| UGACAGCAAUAUUACGAGCU | -2.11 ± 0.083 | -1.53 ± 0.083 |
| UGCCAGCAAUAUUACGCGGG | -3.4 ± 0.2 | -2.44 ± 0.22 |
| GUAUAGCAAUAUUACGGAUU | -2.58 ± 0.14 | -0.56 ± 0.13 |
| CCCCAGCAAUAUUACGACUA | -2.66 ± 0.17 | -2.93 ± 0.28 |
| AGGGAGCAAUAUUACGCCUA | -1.43 ± 0.26 | -1.68 ± 0.21 |
| ACUCAGCAAUAUUACGCGUA | -0.747 ± 0.11 | -0.395 ± 0.11 |
| CACUAGCAAUAUUACGGUAU | -3.41 ± 0.23 | -0.916 ± 0.13 |
| GAACAGCAAUAUUACGGCGA | -1.38 ± 0.09 | -0.318 ± 0.077 |
| UGUAAGCAAUAUUACGAGAU | -3.71 ± 0.3 | -3.14 ± 0.37 |
| GUUCAGCAAUAUUACGAGCA |  | -1.75 ± 0.3 |
| GGUUAGCAAUAUUACGGGCU | -3.26 ± 0.41 | -1.68 ± 0.32 |
| UGGAAGCAAUAUUACGGGCA | -0.216 ± 0.083 | -0.335 ± 0.087 |
| AAUCAGCAAUAUUACGGCAG | -1 ± 0.095 | -1.32 ± 0.11 |
| CCGCAGCAAUAUUACGACUU | -3.51 ± 0.35 | -1.68 ± 0.32 |
| UAGGAGCAAUAUUACGGUCU | -1.36 ± 0.37 |  |
| GGGAAGCAAUAUUACGUCUC | -3.97 ± 0.37 | -3 ± 0.35 |

| Sequence | self-splicing fitness (ln) (30 °C) | self-splicing fitness (ln) (37 °C) |
| --- | --- | --- |
| GAGGAGCAAUAUUACGGAUC | -1.61 ± 0.16 | -0.13 ± 0.17 |
| GACUAGCAAUAUUACGUGUU | -2.22 ± 0.11 | -2.07 ± 0.17 |
| GUGAAGCAAUAUUACGAUAU | -0.274 ± 0.044 | -0.103 ± 0.058 |
| CUGGAGCAAUAUUACGUGAU | -2.53 ± 0.076 | -1.18 ± 0.078 |
| CAAAAGCAAUAUUACGGGAC | -3.76 ± 0.35 | -1.71 ± 0.17 |
| CGCGAGCAAUAUUACGUAGU | -3.92 ± 0.18 | -2.14 ± 0.16 |
| UUAAAGCAAUAUUACGGGUG | 0.148 ± 0.069 | 0.271 ± 0.098 |
| CUAAAGCAAUAUUACGUAAC | -2.86 ± 0.12 | -1.62 ± 0.12 |
| AUUGAGCAAUAUUACGAAUC | -2.93 ± 0.4 |  |
| GGUUAGCAAUAUUACGCAAG | -2.45 ± 0.16 | -1.01 ± 0.12 |
| AAUCAGCAAUAUUACGCGAG | -0.887 ± 0.068 | -1.07 ± 0.088 |
| UCUCAGCAAUAUUACGGCUU | -3.42 ± 0.2 | -3.05 ± 0.18 |
| AGUUAGCAAUAUUACGCCCA | -1.44 ± 0.32 | -0.867 ± 0.33 |
| ACCUAGCAAUAUUACGUGAC | -3.2 ± 0.12 | -0.892 ± 0.11 |
| CCGUAGCAAUAUUACGAUCU |  | -2.46 ± 0.45 |
| AGGUAGCAAUAUUACGGAGG | -4.103 ± 0.034 | -3.11 ± 0.043 |
| GUGAAGCAAUAUUACGUAUG | -2.38 ± 0.085 | -1.29 ± 0.088 |
| UUAUAGCAAUAUUACGUUUG | -2.12 ± 0.15 | -1.14 ± 0.18 |
| UAUCAGCAAUAUUACGGUAC | -3.28 ± 0.26 | -2.54 ± 0.3 |
| UUUGAGCAAUAUUACGUGGA | -2.53 ± 0.21 | -2.37 ± 0.22 |
| GGCCAGCAAUAUUACGAAUU | -3.05 ± 0.19 | -1.03 ± 0.11 |
| AUGAAGCAAUAUUACGGAUA | -0.747 ± 0.088 | -0.113 ± 0.11 |
| UAUAAGCAAUAUUACGCCGG | -0.545 ± 0.16 | -0.0733 ± 0.18 |
| GGUGAGCAAUAUUACGCAUG | -1.48 ± 0.11 | -0.697 ± 0.15 |
| GGGUAGCAAUAUUACGAAUG | -2.18 ± 0.25 | -1.32 ± 0.4 |
